Positions count from the first letter of the chain named.
B1: uncapped SSA1 5'UTR RNA, 40 nt (ssRNA)
RNA: GUAUUACAAGAAACAAAAAUUCAAGUAAAUAACAGAUAAU

Columns and labels:
[1] = target: T1, His6x-eIF4E;p20 N-terminal 18aa peptide (Saccharomyces cerevisiae;Saccharomyces cerevisiae) (UniProt P07260+P12962); test: MST; conditions: equimolar 18aa p20 peptide; 5' m7GpppG cap (Vaccinia Capping System); Buffer A: 10 mM sodium phosphate pH 7.5, 100 mM NaCl, 2.5 mM MgCl2, 1 mM DTT, 0.05% NP40; MST at 25 C (proteins for capped RNA MST RED-tris-NTA labeled in …)
T1 sequence 1: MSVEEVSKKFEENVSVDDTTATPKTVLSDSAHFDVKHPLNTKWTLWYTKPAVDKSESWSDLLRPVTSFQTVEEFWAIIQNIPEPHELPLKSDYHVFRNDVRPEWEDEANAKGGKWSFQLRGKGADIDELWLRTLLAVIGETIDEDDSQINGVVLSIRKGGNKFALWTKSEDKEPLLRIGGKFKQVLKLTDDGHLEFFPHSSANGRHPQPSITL
T1 sequence 2: MIKYTIDELFQLKPSLTL

[2] = target: T2, eIF4E (untagged, co-expressed with p20);His6x-p20 6x mutant R55L;R56L;R57L;H60L;H61L;H62L (Saccharomyces cerevisiae;Saccharomyces cerevisiae) (UniProt P07260+P12962); test: MST; conditions: 5' m7GpppG cap (Vaccinia Capping System); Buffer A: 10 mM sodium phosphate pH 7.5, 100 mM NaCl, 2.5 mM MgCl2, 1 mM DTT, 0.05% NP40; MST at 25 C (proteins for capped RNA MST RED-tris-NTA labeled in …)
T2 sequence 1: T1 sequence 1
T2 sequence 2: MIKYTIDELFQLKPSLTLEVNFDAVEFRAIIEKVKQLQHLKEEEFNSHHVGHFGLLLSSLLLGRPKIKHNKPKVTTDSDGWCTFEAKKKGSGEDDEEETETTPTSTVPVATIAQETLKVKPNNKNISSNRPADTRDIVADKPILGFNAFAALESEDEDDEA

[3] = target: T3, eIF4E (untagged, co-expressed with p20);His6x-p20 WT (Saccharomyces cerevisiae;Saccharomyces cerevisiae) (UniProt P07260+P12962); test: MST; conditions: 5' m7GpppG cap (Vaccinia Capping System), Buffer A: 10 mM sodium phosphate pH 7.5, 100 mM NaCl, 2.5 mM MgCl2, 1 mM DTT, 0.05% NP40, MST at 25 C (proteins for capped RNA MST RED-tris-NTA labeled in …)
T3 sequence 1: T1 sequence 1
T3 sequence 2: T2 sequence 2 with L55R, L56R, L57R, L60H, L61H, L62H

[4] = target: T2, eIF4E (untagged, co-expressed with p20);His6x-p20 6x mutant R55L;R56L;R57L;H60L;H61L;H62L (Saccharomyces cerevisiae;Saccharomyces cerevisiae); test: EMSA; conditions: 5' m7GpppG cap (Vaccinia Capping System); Buffer A: 10 mM sodium phosphate pH 7.5, 100 mM NaCl, 2.5 mM MgCl2, 1 mM DTT, 0.05% NP40; MST at 25 C (proteins for capped RNA MST RED-tris-NTA labeled in …)
[5] = target: T3, eIF4E (untagged, co-expressed with p20);His6x-p20 WT (Saccharomyces cerevisiae;Saccharomyces cerevisiae); test: EMSA; conditions: 5' m7GpppG cap (Vaccinia Capping System); Buffer A: 10 mM sodium phosphate pH 7.5, 100 mM NaCl, 2.5 mM MgCl2, 1 mM DTT, 0.05% NP40; MST at 25 C (proteins for capped RNA MST RED-tris-NTA labeled in …)
[6] = target: T4, eIF4E (untagged, co-expressed with p20);His6x-p20 6x mutant (Saccharomyces cerevisiae;Saccharomyces …, UniProt P07260;P12962 1-213;1-161, |R55L;R56L;R57L;H60L;H61L;H62L); test: MST; Buffer A: 10 mM sodium phosphate pH 7.5, 100 mM NaCl, 2.5 mM MgCl2, 1 mM DTT, 0.05% NP40; MST at 25 C (proteins for capped RNA MST RED-tris-NTA labeled in buffer B: 20 mM HEPES-KOH pH 7.5, 50 mM NaCl, 1 mM DTT); EMSA 1.5% agarose, 1x TBE, temperature not stated; conditions: protein: recombinant;recombinant; tags: ;N-terminal His6x; copies: 1;1; label: 3' FAM
T4 sequence 1: T1 sequence 1
T4 sequence 2: T2 sequence 2

[7] = target: T5, eIF4E (untagged, co-expressed with p20);His6x-p20 WT (Saccharomyces cerevisiae;Saccharomyces …, UniProt P07260;P12962 1-213;1-161, |); test: as above; conditions: protein: recombinant;recombinant; tags: ;N-terminal His6x; copies: 1;1; label: 3' FAM
T5 sequence 1: T1 sequence 1
T5 sequence 2: T2 sequence 2 with L55R, L56R, L57R, L60H, L61H, L62H

[8] = target: T5, eIF4E (untagged, co-expressed with …); test: EMSA; Buffer A: 10 mM sodium phosphate pH 7.5, 100 mM NaCl, 2.5 mM MgCl2, 1 mM DTT, 0.05% NP40; MST at 25 C (proteins for capped RNA MST RED-tris-NTA labeled in buffer B: 20 mM HEPES-KOH pH 7.5, 50 mM NaCl, 1 mM DTT); EMSA 1.5% agarose, 1x TBE, temperature not stated; conditions: protein: recombinant;recombinant; tags: ;N-terminal His6x; copies: 1;1; label: 3' FAM

| Molecule | Kd [1] [nM] | Kd [2] [nM] | Kd [3] [nM] | Kd ([3]; control of the 6x mutant experiment) [nM] | Kd [4] [nM] | Kd [5] [nM] | Kd [6] [nM] | Kd [7] [nM] | Kd [8] [nM] |
| --- | --- | --- | --- | --- | --- | --- | --- | --- | --- |
| GGGAACAAAAGCUGGUAAUCAAGAAUUACAAGAAACAAAAAUUCAAGUAAAUAACAGAUAAUAC [capped SSA1 5'UTR RNA, 64 nt] | 211 | 424 | 44.9 | 46.9 | 285 | 64.9 | – | – | – |
| B1 | – | – | – | – | – | – | 35500 | 6240 | 8800 |

Source: article PMC5928113, “Properties of the ternary complex formed by yeast eIF4E, p20 and mRNA” (Scientific Reports, 2018)
